Source: patent US20220267436A1 (NANJING GENSCRIPT BIOTECH, published 2022)

T1: human LAG-3 (human, UniProt P18627 23-525)
T1 construct: whole, on cells; also called LAG-3 antigen
T1 sequence (looked up): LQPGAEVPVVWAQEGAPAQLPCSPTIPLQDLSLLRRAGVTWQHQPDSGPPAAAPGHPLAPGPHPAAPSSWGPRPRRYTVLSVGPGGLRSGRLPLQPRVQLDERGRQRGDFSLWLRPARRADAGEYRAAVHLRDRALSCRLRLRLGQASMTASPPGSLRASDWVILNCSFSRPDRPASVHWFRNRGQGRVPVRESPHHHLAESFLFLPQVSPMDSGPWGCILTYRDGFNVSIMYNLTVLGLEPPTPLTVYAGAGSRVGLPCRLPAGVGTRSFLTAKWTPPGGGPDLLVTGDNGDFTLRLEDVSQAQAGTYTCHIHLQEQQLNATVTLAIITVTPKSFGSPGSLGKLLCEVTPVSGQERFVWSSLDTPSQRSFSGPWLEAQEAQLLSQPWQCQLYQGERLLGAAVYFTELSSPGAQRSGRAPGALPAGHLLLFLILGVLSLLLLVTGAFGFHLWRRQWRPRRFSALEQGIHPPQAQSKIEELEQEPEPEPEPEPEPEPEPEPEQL

B1: bispecific antibody LAG3-G9-LN (bispecific antibody, human IgG4 S228P, kappa)
heavy: not shown
light: EVQLVESGGGLVQPGGSLRLSCAASGYTVSSYCMGWFRQAPGKGREGVSAIDSDGSVSYADSVKGRFTISKDNSKNTLYLQMNSLRAEDTAVYFCAADLCWVDQDQGEYNTWGQGTLVTVSSGGGGSGGGSEIVLTQSPATLSLSPGERATLSCRASENVGTYISWYQQKPGQAPRLLIYGASNRYTGIPARFSGSGSGTDFTLTISSLEPEDFAVYYCGESYGHLYTFGGGTKVEIKRTVAAPSVFIFPPSDEQLKSGTASVVCLLNNFYPREAKVQWKVDNALQSGNSQESVTEQDSKDSTYSLSSTLTLSKADYEKHKVYACEVTHQGLSSPVTKSFNRGEC
notes: Two identical fused chains and two identical natural chains; also called L4 + H0
B2: bispecific antibody LAG3-G9-LC (bispecific antibody, human IgG4 S228P, kappa)
heavy: not shown
light: EIVLTQSPATLSLSPGERATLSCRASENVGTYISWYQQKPGQAPRLLIYGASNRYTGIPARFSGSGSGTDFTLTISSLEPEDFAVYYCGESYGHLYTFGGGTKVEIKRTVAAPSVFIFPPSDEQLKSGTASVVCLLNNFYPREAKVQWKVDNALQSGNSQESVTEQDSKDSTYSLSSTLTLSKADYEKHKVYACEVTHQGLSSPVTKSFNRGECGGGGSGGGSEVQLVESGGGLVQPGGSLRLSCAASGYTVSSYCMGWFRQAPGKGREGVSAIDSDGSVSYADSVKGRFTISKDNSKNTLYLQMNSLRAEDTAVYFCAADLCWVDQDQGEYNTWGQGTLVTVSS
notes: Two identical fused chains and two identical natural chains; also called L3 + H0
B3: bispecific antibody LAG3-E-LN (bispecific antibody, human IgG4 S228P, kappa)
heavy: not shown
light: EVQLVESGGGLVQPGGSLRLSCAASGYTVSSYCMGWFRQAPGKGREGVSAIDSDGSVSYADSVKGRFTISKDNSKNTLYLQMNSLRAEDTAVYFCAADLCWVDQDQGEYNTWGQGTLVTVSSEPKSSDKTHTSPPSPEIVLTQSPATLSLSPGERATLSCRASENVGTYISWYQQKPGQAPRLLIYGASNRYTGIPARFSGSGSGTDFTLTISSLEPEDFAVYYCGESYGHLYTFGGGTKVEIKRTVAAPSVFIFPPSDEQLKSGTASVVCLLNNFYPREAKVQWKVDNALQSGNSQESVTEQDSKDSTYSLSSTLTLSKADYEKHKVYACEVTHQGLSSPVTKSFNRGEC
notes: Two identical fused chains and two identical natural chains; also called L2 + H0
B4: bispecific antibody LAG3-E-LC (bispecific antibody, human IgG4 S228P, kappa)
heavy: not shown
light: EIVLTQSPATLSLSPGERATLSCRASENVGTYISWYQQKPGQAPRLLIYGASNRYTGIPARFSGSGSGTDFTLTISSLEPEDFAVYYCGESYGHLYTFGGGTKVEIKRTVAAPSVFIFPPSDEQLKSGTASVVCLLNNFYPREAKVQWKVDNALQSGNSQESVTEQDSKDSTYSLSSTLTLSKADYEKHKVYACEVTHQGLSSPVTKSFNRGECEPKSSDKTHTSPPSPEVQLVESGGGLVQPGGSLRLSCAASGYTVSSYCMGWFRQAPGKGREGVSAIDSDGSVSYADSVKGRFTISKDNSKNTLYLQMNSLRAEDTAVYFCAADLCWVDQDQGEYNTWGQGTLVTVSS
notes: Two identical fused chains and two identical natural chains; also called L1 + H0
B5: bispecific antibody LAG3-E-HC (bispecific antibody, human IgG4 S228P, kappa)
heavy: not shown
light: EIVLTQSPATLSLSPGERATLSCRASENVGTYISWYQQKPGQAPRLLIYGASNRYTGIPARFSGSGSGTDFTLTISSLEPEDFAVYYCGESYGHLYTFGGGTKVEIKRTVAAPSVFIFPPSDEQLKSGTASVVCLLNNFYPREAKVQWKVDNALQSGNSQESVTEQDSKDSTYSLSSTLTLSKADYEKHKVYACEVTHQGLSSPVTKSFNRGEC
notes: Two identical fused chains and two identical natural chains; also called H1 + L0
B6: bispecific antibody LAG3-G9-HC (bispecific antibody, human IgG4 S228P, kappa)
heavy: not shown
light: B5 light
notes: Two identical fused chains and two identical natural chains; also called LAGS-G9-HC; H3 + L0
B7: bispecific antibody LAG3-G15-HN (bispecific antibody, human IgG4 S228P, kappa)
heavy: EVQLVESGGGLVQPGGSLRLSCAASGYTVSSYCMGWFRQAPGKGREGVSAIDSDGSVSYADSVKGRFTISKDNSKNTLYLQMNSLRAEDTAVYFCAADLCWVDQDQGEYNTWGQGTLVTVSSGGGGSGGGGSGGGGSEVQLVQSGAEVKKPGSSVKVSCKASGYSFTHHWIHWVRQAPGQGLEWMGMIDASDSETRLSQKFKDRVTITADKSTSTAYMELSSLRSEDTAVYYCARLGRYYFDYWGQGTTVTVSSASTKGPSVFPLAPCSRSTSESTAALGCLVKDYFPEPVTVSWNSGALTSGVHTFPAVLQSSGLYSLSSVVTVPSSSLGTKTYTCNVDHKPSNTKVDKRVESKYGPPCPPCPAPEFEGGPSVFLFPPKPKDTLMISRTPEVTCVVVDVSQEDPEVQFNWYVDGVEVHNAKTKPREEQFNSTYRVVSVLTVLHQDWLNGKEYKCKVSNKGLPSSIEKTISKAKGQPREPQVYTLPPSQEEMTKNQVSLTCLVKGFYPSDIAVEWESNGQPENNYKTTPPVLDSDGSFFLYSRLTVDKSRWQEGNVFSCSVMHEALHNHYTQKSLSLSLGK
light: B5 light
notes: Two identical fused chains and two identical natural chains; also called H6 + L0
B8: bispecific antibody LAG3-E-HN (bispecific antibody, human IgG4 S228P, kappa)
heavy: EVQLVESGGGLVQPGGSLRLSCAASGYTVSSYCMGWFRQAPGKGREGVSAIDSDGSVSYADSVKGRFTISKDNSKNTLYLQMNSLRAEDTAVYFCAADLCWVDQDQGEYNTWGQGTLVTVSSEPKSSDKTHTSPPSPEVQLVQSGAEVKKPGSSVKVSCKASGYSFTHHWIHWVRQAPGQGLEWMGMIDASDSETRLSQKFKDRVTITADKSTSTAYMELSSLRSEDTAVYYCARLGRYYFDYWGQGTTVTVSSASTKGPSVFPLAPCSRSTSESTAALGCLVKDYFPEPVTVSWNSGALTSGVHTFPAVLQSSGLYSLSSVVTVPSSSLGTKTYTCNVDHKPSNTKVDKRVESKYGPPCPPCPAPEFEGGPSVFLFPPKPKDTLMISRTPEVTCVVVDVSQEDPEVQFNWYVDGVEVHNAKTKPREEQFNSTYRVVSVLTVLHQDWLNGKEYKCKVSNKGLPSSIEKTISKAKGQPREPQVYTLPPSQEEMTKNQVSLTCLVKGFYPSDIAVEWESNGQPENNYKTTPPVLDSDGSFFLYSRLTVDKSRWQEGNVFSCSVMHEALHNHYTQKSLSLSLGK
light: B5 light
notes: Two identical fused chains and two identical natural chains; also called H2 + L0
B9: bispecific antibody LAG3-G9-HN (bispecific antibody, human IgG4 S228P, kappa)
heavy: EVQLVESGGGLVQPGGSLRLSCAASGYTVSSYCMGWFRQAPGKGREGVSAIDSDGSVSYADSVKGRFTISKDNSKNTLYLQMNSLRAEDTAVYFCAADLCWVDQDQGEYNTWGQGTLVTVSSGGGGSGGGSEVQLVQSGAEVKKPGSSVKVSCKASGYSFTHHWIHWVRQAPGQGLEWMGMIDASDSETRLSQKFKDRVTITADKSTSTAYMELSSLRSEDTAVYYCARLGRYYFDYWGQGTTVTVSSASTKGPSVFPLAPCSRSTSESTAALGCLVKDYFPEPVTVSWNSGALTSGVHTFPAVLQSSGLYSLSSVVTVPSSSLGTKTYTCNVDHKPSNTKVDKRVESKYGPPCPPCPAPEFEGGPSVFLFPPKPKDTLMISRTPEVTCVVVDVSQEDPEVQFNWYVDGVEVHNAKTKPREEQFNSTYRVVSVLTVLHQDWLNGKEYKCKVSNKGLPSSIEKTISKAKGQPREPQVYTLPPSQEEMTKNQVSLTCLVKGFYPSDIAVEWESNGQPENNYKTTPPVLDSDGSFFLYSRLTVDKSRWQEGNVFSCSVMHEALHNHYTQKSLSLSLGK
light: B5 light
notes: Two identical fused chains and two identical natural chains; also called H4 + L0
B10: bispecific antibody LAG3-G15-HC (bispecific antibody, human IgG4 S228P, kappa)
heavy: not shown
light: B5 light
notes: Two identical fused chains and two identical natural chains; also called H5 + L0
B11: bispecific antibody LAG3-G15-LN (bispecific antibody, human IgG4 S228P, kappa)
heavy: not shown
light: EVQLVESGGGLVQPGGSLRLSCAASGYTVSSYCMGWFRQAPGKGREGVSAIDSDGSVSYADSVKGRFTISKDNSKNTLYLQMNSLRAEDTAVYFCAADLCWVDQDQGEYNTWGQGTLVTVSSGGGGSGGGGSGGGGSEIVLTQSPATLSLSPGERATLSCRASENVGTYISWYQQKPGQAPRLLIYGASNRYTGIPARFSGSGSGTDFTLTISSLEPEDFAVYYCGESYGHLYTFGGGTKVEIKRTVAAPSVFIFPPSDEQLKSGTASVVCLLNNFYPREAKVQWKVDNALQSGNSQESVTEQDSKDSTYSLSSTLTLSKADYEKHKVYACEVTHQGLSSPVTKSFNRGEC
notes: Two identical fused chains and two identical natural chains; also called L6 + H0
B12: bispecific antibody LAG3-G15-LC (bispecific antibody, human IgG4 S228P, kappa)
heavy: not shown
light: EIVLTQSPATLSLSPGERATLSCRASENVGTYISWYQQKPGQAPRLLIYGASNRYTGIPARFSGSGSGTDFTLTISSLEPEDFAVYYCGESYGHLYTFGGGTKVEIKRTVAAPSVFIFPPSDEQLKSGTASVVCLLNNFYPREAKVQWKVDNALQSGNSQESVTEQDSKDSTYSLSSTLTLSKADYEKHKVYACEVTHQGLSSPVTKSFNRGECGGGGSGGGGSGGGGSEVQLVESGGGLVQPGGSLRLSCAASGYTVSSYCMGWFRQAPGKGREGVSAIDSDGSVSYADSVKGRFTISKDNSKNTLYLQMNSLRAEDTAVYFCAADLCWVDQDQGEYNTWGQGTLVTVSS
notes: Two identical fused chains and two identical natural chains; also called L5 + H0
B13: anti-CD47 monoclonal antibody (mAb) (antibody, human IgG4 S228P, kappa, V domains shown)
VH: EVQLVQSGAEVKKPGSSVKVSCKASGYSFTHHWIHWVRQAPGQGLEWMGMIDASDSETRLSQKFKDRVTITADKSTSTAYMELSSLRSEDTAVYYCARLGRYYFDYWGQGTTVTVSS
VL: EIVLTQSPATLSLSPGERATLSCRASENVGTYISWYQQKPGQAPRLLIYGASNRYTGIPARFSGSGSGTDFTLTISSLEPEDFAVYYCGESYGHLYTFGGGTKVEIKR
notes: Full-length antibody composed of heavy chain H0 and light chain L0; also called anti-CD47 mAb; anti-CD47 antibody control

These binders were tested against T1, human LAG-3 (assay: flow cytometry on CHO-K1 cells expressing human LAG-3).
Description: (§1) For the constructed series of bispecific antibodies, the affinity of these samples with antigens was measured by using a flow cytometer. […] Then, an antibody-antigen binding curve was generated based on the geometric mean, raw data of four parameters was plotted by using the […] Prism V6.02 software, and a best fitted value program was compiled to analyze EC₅₀.

Binding result, binds:
B1
B2
B3
B4
B5
B6
B7
B8
B9
B10
B11
B12

These binders were tested against T2, human CD47 (human, UniProt Q08722 19-323) (assay: flow cytometry on CHO-K1 cells expressing human CD47).
T2 construct: whole, on cells; also called CD47 antigen; integrin associated protein
T2 sequence (Q08722 19-323): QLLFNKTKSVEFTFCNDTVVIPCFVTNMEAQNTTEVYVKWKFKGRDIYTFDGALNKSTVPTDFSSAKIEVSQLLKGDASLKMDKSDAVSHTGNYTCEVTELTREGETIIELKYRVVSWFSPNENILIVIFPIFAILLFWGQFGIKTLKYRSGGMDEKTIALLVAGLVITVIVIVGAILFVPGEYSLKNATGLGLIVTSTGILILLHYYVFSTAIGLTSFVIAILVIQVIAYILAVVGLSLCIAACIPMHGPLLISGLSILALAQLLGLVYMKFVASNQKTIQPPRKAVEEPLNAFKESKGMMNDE
Description: as §1

Binding result, binds:
B2
B13
B12
